Assay [1] addresses human LILRB1 expressed on cells (Jurkat reporter cells; primary human cells; human CD8+ T cells) (human) (UniProt Q8NHL6). The experiment in a line: flow cytometry, control on LILRB1 expressed by primary human cells. A general note: A flow cytometer gives signals particle by particle.
Assay [2] shares this target. The assay is described as follows: flow cytometry, hybridoma supernatant on LILRB1 expressed by primary human cells.
For assay [3] the target is unchanged. The assay is described as follows: cell-based or functional assay.
The target of assay [4] is T1, Recombinant human LILRB1 (R&D Systems) (human, UniProt Q8NHL6 24-458, limits assumed).
T1 construct: Soluble analyte in the Octet assay
The experiment in a line: BLI, ForteBio Octet HTX, antibody captured by anti-human Fc on SA sensors, soluble LILRB1 as analyte, 25 C, 1:1 model. The method, then:
Affinity was measured on ForteBio Octet HTX (Molecular Devices) using SA biosensors (cat 18-5010) using assay buffer comprised of 10 mM Tris, 0.1% TritonX, 150 mM NaCl, 1 mM CaCl₂), 1 mg/mL BSA, pH 7.4. Assay was conducted at 25° C. and 1:1 model was used to fit the curves. Biotinylated goat anti-human Fc at 0.75 ug/mL was captured on SA sensors and antibodies as unpurified but quantified hybridoma supernatant were loaded on the sensor at 2 ug/mL for 600 seconds. Recombinant human LILRB1 (R&D Systems) titrated 1:2 from 25 nM was allowed to bind for 5 minutes, then dissociation was measured for 20 minutes.
For orientation: Biolayer interferometry detects binding as a change in optical thickness at a sensor tip.

Broadly, the Kd is the free concentration of one partner at which half of the binding sites on the other are occupied at equilibrium, for simple one-to-one binding. The term koff denotes a measure of how fast the partners let go of each other. The term kon denotes a measure of how fast the partners come together.

Where a chain is given by its changes, count along the chain named.

T1 sequence (Q8NHL6 24-458 limits assumed): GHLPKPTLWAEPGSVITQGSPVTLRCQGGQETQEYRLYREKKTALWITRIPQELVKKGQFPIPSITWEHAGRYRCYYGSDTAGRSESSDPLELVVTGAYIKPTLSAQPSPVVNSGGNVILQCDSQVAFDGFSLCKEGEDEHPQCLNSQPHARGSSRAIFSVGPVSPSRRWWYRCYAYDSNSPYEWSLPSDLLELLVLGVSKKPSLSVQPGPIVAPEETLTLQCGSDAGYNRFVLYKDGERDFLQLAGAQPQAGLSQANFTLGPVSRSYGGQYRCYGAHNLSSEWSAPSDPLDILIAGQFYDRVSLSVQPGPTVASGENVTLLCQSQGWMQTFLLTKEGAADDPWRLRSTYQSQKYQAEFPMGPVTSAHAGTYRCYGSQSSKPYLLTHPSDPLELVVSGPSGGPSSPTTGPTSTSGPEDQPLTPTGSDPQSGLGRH

Turning to Isotype control (Table 2) (antibody), in assay [1], the FACS GeoMean test 2 amounted to 359 and the FACS GeoMean, test 1 was 73.

B1: anti-LILRB1 antibody 3C1 (antibody, human IgG4, lambda, V domains shown)
VH: EVQLVESGGGLVQPGGSLRLSCAASGFTFSDYDMHWVRQATGKGLEWVATIDTAGDTYYPDSVRGRFTISRENAKNSLSLQMNSLRAGDTAVYFCARDVPGTGFDHWGQGTLVTVSS
VL: SSELTQDPAVSVALGQTVRITCQGDSLRSYYESWYQQKPGQAPVLVIYGKNNRPSGIPDRFSGSISGNTASLTITGTQAEDEADYYCNSRDNSGDHWVFGGGTRLTVLG
notes: Fully human antibody from XENOMOUSE XMG4-K/XMG4-KL mice, tested as hybridoma supernatant
With B1, in assay [2], the FACS GeoMean, test 1 turned out to be 1750. In assay [3], this molecule showed a Potency (nM), n = 1 of 0.04 nM and a Potency (nM), n = 2 of 0.024 nM. In assay [4], the dissociation constant Kd was 0.168 nM, the koff was determined as 0.000247 s⁻¹ and the kon came out at 1.47e+06 M⁻¹ s⁻¹.

B2: anti-LILRB1 antibody 19D6 (antibody, V domains shown)
VH: EVQLVESGGGLVQPGESLRLSCAASGFTFSDYDMHWVRQATGKGLEWVSAIDTAGDTYYLGPVKGRFTISRENAKNSLFLHMNSLRVGDTAVYYCIRDSGSSFDYWGQGTLVTVSS
VL: B1 VL with S1T, S29N, I65S, T73I, N88M, N92S, D95N, R104K, L105V
notes: Fully human antibody from XENOMOUSE mice, tested as hybridoma supernatant
For B2, in assay [2], the FACS GeoMean test 2 turned out to be 2540. Further, in assay [3], the Potency (nM), n = 1 stood at 0.084 nM and the Potency (nM), n = 2 stood at 0.095 nM. In assay [4], the Kd was 0.176 nM, the koff is 0.000206 s⁻¹ and the kon is 1.17e+06 M⁻¹ s⁻¹.

B3: anti-LILRB1 antibody 30A10 (antibody, V domains shown)
VH: QVQLVESGGGVVQPGRSLRLSCAASGFTFSSYAMHWVRQAPGKGLEWVAIIWFDGSQRYYADSVKGRFTISRDNSRDTLYLQMNSLRAEDTAVYYCARDELTGFDYWGQGTLVTVSS
VL: DIQMTQSPSSLSASVGDRVTISCRASQNIINFLNWYQQKPGKAPKVLIDAASSLRSGVPSRFSGSGSETDFSLTISSLQPEDFATYYCQQSFSTPLTFGGGTKVEIRR
notes: as for B2
The molecule B3 displayed an FACS GeoMean test 2 in assay [2] of 2540. In assay [3], the Potency (nM), n = 1 was found to be 0.062 nM and the Potency (nM), n = 2 was determined as 0.042 nM. In assay [4], the dissociation constant Kd came out at 0.103 nM, the off-rate (koff) turned out to be 0.00012 s⁻¹ and the on-rate constant (kon) was found to be 1.17e+06 M⁻¹ s⁻¹.
